From patent US20140072613A1, “Compositions and Methods for Treating Cutaneous Scarring” (priority 2012, published 2014)

Key:
Assay in all cases: biochemical
Format in all cases: biochemical
266 human kinases [1] = target: 266 human kinases (Homo sapiens, UniProt Q8TDX7); conditions: NEK7(h); 100 μM
In short: (§1)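 Kinase phosphorylates cationic substrate with radiolabelled ATP phosphate; substrate retained on anionic filter membrane; scintillation count; % of 100% activity control.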

266 human kinases [2] = target: 266 human kinases (Homo sapiens, UniProt Q9UM73); conditions: ALK(h); 100 μM
266 human kinases (Homo sapiens, UniProt Q9UM73), sequence (Q9UM73 19-1620): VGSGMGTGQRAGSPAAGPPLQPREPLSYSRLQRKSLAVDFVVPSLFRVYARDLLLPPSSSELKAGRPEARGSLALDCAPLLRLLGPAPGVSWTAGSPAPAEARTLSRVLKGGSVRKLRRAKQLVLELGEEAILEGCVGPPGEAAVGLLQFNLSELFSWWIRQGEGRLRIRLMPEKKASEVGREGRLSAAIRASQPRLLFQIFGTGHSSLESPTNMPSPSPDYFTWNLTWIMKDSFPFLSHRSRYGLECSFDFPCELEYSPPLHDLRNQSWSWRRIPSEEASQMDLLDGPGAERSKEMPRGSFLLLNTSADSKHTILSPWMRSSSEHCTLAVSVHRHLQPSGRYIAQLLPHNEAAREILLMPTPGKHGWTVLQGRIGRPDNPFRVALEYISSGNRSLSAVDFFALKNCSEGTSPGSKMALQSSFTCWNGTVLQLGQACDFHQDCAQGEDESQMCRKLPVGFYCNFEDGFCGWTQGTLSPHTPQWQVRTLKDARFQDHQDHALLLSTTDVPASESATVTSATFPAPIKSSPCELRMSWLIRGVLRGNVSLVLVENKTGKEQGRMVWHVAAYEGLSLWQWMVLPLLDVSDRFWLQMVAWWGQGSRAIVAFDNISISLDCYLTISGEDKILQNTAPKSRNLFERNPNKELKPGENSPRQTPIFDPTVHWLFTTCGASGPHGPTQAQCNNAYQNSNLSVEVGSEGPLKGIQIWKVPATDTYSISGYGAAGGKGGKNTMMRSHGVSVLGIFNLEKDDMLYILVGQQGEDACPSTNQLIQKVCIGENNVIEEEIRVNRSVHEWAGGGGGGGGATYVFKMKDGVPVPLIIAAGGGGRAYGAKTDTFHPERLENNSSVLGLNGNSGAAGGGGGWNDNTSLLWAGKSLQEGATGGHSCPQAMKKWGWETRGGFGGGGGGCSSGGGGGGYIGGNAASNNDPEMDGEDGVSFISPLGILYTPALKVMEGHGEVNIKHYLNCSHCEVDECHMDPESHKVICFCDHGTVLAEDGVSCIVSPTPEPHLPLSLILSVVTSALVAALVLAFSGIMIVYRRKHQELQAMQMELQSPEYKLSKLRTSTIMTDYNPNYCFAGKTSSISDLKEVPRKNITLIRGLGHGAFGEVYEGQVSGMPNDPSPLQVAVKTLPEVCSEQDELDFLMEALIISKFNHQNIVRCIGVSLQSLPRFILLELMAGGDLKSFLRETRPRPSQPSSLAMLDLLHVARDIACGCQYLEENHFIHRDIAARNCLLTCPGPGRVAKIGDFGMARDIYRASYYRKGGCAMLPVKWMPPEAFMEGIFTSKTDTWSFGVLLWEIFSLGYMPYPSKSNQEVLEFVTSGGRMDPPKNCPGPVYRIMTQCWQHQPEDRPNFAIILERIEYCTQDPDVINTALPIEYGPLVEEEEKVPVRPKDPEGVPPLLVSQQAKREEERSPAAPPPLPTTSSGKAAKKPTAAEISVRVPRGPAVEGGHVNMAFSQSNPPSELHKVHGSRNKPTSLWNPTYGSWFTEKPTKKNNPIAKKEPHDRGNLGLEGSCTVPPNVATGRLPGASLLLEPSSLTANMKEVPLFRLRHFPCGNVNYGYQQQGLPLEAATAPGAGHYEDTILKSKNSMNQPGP
In short: as §1

266 human kinases [3] = target: 266 human kinases (Homo sapiens, UniProt Q04912); conditions: Ron(h); 100 μM
In short: as §1

266 human kinases [4] = target: T1, 266 human kinases (Homo sapiens, UniProt Q02156); conditions: PKCε(h); 100 μM
T1 sequence (Q02156 1-737): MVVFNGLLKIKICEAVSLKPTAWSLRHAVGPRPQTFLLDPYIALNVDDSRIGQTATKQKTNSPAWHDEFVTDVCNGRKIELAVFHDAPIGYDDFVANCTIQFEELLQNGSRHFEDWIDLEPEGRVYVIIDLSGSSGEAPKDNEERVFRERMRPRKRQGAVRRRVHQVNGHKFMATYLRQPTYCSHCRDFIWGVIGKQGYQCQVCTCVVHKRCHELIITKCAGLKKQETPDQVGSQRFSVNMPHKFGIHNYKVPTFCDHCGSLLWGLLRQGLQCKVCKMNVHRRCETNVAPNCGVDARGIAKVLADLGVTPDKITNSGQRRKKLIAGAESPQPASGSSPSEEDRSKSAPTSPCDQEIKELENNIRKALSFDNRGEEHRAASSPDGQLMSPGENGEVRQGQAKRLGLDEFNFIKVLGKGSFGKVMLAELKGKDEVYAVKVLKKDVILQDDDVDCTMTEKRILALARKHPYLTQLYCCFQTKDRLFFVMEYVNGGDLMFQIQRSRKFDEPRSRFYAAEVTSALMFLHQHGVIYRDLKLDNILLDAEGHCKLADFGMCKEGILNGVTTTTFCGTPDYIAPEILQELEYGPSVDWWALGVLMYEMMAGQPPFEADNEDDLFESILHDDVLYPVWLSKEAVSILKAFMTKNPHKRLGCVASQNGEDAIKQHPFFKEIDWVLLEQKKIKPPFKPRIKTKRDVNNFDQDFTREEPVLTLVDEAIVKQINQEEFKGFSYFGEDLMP
In short: as §1

266 human kinases [5] = target: 266 human kinases (Homo sapiens, UniProt Q13043); conditions: MST1(h); 100 μM
266 human kinases (Homo sapiens, UniProt Q13043), sequence (Q13043 whole entry): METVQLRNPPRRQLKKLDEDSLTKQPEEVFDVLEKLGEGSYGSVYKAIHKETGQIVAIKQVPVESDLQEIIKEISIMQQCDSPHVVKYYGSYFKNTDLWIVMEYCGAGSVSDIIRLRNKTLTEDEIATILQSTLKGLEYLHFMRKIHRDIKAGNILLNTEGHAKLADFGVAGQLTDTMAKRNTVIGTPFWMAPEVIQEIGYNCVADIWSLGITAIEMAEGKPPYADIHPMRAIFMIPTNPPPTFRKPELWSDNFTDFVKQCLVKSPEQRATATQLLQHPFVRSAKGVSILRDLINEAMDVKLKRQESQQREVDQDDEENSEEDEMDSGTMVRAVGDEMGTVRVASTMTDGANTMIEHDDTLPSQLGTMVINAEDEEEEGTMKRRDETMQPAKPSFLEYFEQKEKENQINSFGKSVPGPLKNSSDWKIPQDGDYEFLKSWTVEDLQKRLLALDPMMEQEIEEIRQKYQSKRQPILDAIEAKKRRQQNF
In short: as §1

266 human kinases [6] = target: 266 human kinases (Homo sapiens, UniProt P08581); conditions: Met(h); 100 μM
In short: as §1

266 human kinases [7] = target: T2, 266 human kinases (Homo sapiens, UniProt Q9BZL6); conditions: PKD2(h); 100 μM
T2 sequence (Q9BZL6 1-878): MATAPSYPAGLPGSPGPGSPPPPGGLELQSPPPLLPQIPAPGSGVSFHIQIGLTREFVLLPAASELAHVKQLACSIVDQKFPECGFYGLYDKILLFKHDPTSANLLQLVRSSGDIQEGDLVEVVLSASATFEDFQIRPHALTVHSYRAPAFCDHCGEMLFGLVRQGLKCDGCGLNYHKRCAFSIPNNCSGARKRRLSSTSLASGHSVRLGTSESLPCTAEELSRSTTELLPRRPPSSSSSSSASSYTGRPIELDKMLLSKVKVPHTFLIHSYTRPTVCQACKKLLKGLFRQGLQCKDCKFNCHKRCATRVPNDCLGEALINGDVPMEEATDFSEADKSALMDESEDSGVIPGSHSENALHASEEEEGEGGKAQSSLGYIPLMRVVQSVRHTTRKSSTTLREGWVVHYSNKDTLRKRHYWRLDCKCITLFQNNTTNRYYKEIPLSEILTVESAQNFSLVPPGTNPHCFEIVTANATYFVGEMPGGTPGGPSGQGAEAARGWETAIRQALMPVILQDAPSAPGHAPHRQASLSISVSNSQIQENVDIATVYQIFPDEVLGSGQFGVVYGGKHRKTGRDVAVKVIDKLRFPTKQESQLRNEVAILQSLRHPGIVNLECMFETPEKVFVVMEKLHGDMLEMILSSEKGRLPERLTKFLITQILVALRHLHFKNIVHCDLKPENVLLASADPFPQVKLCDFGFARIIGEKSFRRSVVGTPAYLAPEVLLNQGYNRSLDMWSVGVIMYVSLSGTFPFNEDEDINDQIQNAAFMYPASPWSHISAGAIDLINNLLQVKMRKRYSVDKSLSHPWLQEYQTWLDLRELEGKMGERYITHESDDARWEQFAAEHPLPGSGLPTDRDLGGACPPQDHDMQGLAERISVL
In short: as §1

266 human kinases [8] = target: 266 human kinases (Homo sapiens, UniProt Q92630); conditions: DYRK2(h); 100 μM
266 human kinases (Homo sapiens, UniProt Q92630), sequence (Q92630 whole entry): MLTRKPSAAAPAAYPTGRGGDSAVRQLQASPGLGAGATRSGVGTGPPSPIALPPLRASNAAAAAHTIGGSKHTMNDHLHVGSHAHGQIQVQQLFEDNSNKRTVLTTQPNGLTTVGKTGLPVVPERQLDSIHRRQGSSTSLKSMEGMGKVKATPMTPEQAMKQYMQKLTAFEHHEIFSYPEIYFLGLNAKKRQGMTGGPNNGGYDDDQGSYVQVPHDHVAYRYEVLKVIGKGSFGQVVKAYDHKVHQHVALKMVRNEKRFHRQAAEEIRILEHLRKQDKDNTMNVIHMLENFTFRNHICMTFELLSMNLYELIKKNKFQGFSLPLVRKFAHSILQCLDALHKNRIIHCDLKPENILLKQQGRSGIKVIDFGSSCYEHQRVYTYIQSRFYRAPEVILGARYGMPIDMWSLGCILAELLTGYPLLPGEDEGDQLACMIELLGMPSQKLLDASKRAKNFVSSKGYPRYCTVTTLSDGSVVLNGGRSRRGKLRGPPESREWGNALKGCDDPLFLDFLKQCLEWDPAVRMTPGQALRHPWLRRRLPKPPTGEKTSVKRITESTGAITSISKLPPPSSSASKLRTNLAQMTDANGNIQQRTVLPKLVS
In short: as §1

266 human kinases [9] = target: 266 human kinases (Homo sapiens, UniProt P08581, Y1230C); conditions: Met(Y1248C)(h); 100 μM
In short: as §1

266 human kinases [10] = target: T3, 266 human kinases (Homo sapiens, UniProt Q05513); conditions: PKCζ(h); 100 μM
T3 sequence (Q05513 1-592): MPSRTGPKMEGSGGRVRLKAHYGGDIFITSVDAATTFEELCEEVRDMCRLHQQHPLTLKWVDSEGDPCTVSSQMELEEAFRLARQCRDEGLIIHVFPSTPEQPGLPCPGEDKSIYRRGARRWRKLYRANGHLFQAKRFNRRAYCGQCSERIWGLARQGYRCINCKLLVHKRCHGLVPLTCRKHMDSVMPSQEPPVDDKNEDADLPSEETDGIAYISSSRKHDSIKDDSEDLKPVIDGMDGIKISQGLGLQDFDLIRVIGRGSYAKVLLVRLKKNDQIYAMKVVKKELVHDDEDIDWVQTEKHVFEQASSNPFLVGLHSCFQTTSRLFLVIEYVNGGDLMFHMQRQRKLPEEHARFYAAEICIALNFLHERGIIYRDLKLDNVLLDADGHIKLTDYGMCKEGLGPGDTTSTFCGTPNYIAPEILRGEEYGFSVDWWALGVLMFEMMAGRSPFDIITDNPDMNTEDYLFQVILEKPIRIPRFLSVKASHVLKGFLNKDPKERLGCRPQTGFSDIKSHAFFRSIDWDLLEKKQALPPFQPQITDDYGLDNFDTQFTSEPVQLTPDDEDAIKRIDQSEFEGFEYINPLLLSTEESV
In short: as §1

266 human kinases (Homo sapiens, UniProt Q8TDX7), sequence (Q8TDX7 whole entry): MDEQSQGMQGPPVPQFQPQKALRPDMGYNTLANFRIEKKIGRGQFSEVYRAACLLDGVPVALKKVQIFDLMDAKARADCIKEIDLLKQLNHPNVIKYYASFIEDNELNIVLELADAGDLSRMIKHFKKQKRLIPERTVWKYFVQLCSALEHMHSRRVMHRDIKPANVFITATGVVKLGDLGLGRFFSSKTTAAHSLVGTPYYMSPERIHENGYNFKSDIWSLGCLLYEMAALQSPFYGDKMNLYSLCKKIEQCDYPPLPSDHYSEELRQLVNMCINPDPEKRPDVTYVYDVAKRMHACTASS

Sequence | % activity (266 human kinases [1]) [%] | % activity (266 human kinases [2]) [%] | % activity (266 human kinases [3]) [%] | % activity (266 human kinases [4]) [%] | % activity (266 human kinases [5]) [%] | % activity (266 human kinases [6]) [%] | % activity (266 human kinases [7]) [%] | % activity (266 human kinases [8]) [%] | % activity (266 human kinases [9]) [%] | % activity (266 human kinases [10]) [%]
HRRIKAWLKKIKALARQLGVAA (mammal) [MMI-0500] | 89 | 12 | 46 | 23 | 3 | 27 | 10 | 127 | 73 | 7
YARAAARQARAKALNRQLGVA (mammal) [MMI-0200] | 96 | 95 | 120 | 98 | 72 | 71 | 78 | 142 | 141 | 98
